Here are results for 20 molecules from publication PMC3257521 (Biochemistry, 2011).

Where only a bound is given, the exact number is not on record here.

The target of data set [1] is T1, Pnc1 (Saccharomyces cerevisiae, UniProt P53184). As to the kind of experiment: HPLC assay of substrate activity. The format is biochemical, S. cerevisiae. To be noted: for kcat: HPLC assay, no activity above detection limit of 10^−5 s^−1.
Data set [2] addresses T1, Pnc1. Description: 15N kinetic isotope effect with substrates. The format is biochemical, S. cerevisiae.
The target in data set [3] is T1, Pnc1. As to the kind of experiment: Effect of EDTA or ZnCl2 on Pnc1 activity. The format is biochemical, S. cerevisiae. To be noted: data not shown.
Data set [4] addresses nicotinamidase from M. lysodeikticus. To be noted: cited from earlier work.
The target of data set [5] is T1, Pnc1. As to the kind of experiment: Pnc1 competitive inhibition. The format is biochemical, S. cerevisiae. To be noted: for inhibition pattern: double-reciprocal analysis versus nicotinamide.
For data set [6], the system named is S. cerevisiae Pnc1. To be noted: French et al.; cited from earlier work.
The target of data set [7] is T1, Pnc1. To be noted: 100 mM ammonium chloride and 5 mM nicotinic acid, 5 µM Pnc1, 150 minutes, pH 7.5; no nicotinamide detected.
Data set [8] has as its target T1, Pnc1. As to the kind of experiment: Product inhibition by ammonium ion, HPLC assay. The format is biochemical, S. cerevisiae. To be noted: for inhibition pattern: versus nicotinamide, data not shown.
Data set [9] deals with T1, Pnc1. The format is biochemical, S. cerevisiae.
The subject of data set [10] is nicotinamidase from S. cerevisiae. To be noted: S. cerevisiae Pnc1, French et al.; cited from earlier work.
Data set [11] addresses nicotinamidase from Fleischmann’s yeast. To be noted: cited from earlier work.
For data set [12], the target named is nicotinamidase from Tortula cremoris. To be noted: cited from earlier work.
Substrate in data set [13]: NC(=O)c1ccccc1
The format is biochemical, S. cerevisiae. To be noted: other: substrate of Pnc1, pH 7.5, 25.0 °C.

Substrate in data set [14]: NC(=S)c1cccnc1
The format is biochemical, S. cerevisiae. To be noted: other: substrate of Pnc1, pH 7.5, 25.0 °C.

Substrate in data set [15]: NC(=O)c1cnccn1
The format is biochemical, S. cerevisiae. To be noted: other: substrate of Pnc1, pH 7.5, 25.0 °C.

Substrate in data set [16]: NC(=O)c1cccnc1
The format is biochemical, S. cerevisiae. To be noted: other: substrate of Pnc1, pH 7.5, 25.0 °C.

Substrate in data set [17]: Cc1cncc(C(N)=O)c1
The format is biochemical, S. cerevisiae. To be noted: other: substrate of Pnc1, pH 7.5, 25.0 °C.

In data set [18] the test system is Pnc1 WT or mutant. As to the kind of experiment: Steady-state kinetic parameters of Pnc1 mutants, enzyme-coupled assay. The format is biochemical, S. cerevisiae. To be noted: substrate nicotinamide; for kcat: pH 7.5.
Data set [19] relates to Pnc1 WT or mutant. As to the kind of experiment: 13C kinetic isotope effect of Pnc1 mutants. The format is biochemical, S. cerevisiae. To be noted: substrate nicotinamide.
The subject of data set [20] is Pnc1 WT or mutant. As to the kind of experiment: 15N kinetic isotope effect of Pnc1 mutants. The format is biochemical, S. cerevisiae. To be noted: substrate nicotinamide.

Turning to `NC(=O)C1=CN([C@@H]2O[C@H](COP(=O)(O)OP(=O)(O)OC[C@H]3O[C@@H](n4cnc5c(N)ncnc54)[C@H](O)[C@@H]3O)[C@@H](O)[C@H]2O)C=CC1` [β-nicotinamide adenine dinucleotide], the substrate activity entry in data set [1] is recorded as “not substrates”. For the same molecule, the turnover number (kcat) in data set [1] was < 10^−5 ^c s^−1; in data set [1] (listed as NAD^+) it was < 10^−5 s^−1.
For `NC(=S)c1cccnc1` [thionicotinamide], the “increase in 15N KIE value compared to nicotinamide” value in data set [2] is 1.4%. For the same molecule, the “15N KIE” value in [2] (on V/K, pH 7.5) came out at 1.0262 ± 0.0019.
`O=C(O)CN(CCN(CC(=O)O)CC(=O)O)CC(=O)O` [EDTA, ethylenediaminetetraacetic acid]: in [3] (10 mM), the “inhibition of Pnc1” value is given as “did not inhibit”.
Regarding `O=Cc1ccccc1` [benzaldehyde], in data set [4], the Ki was 1800 µM. Further, in data set [5], the inhibition constant (Ki) was 20600 ± 5700 µM and the “fold less potent inhibitor compared to nicotinaldehyde” value is 22,000 fold.
Take `NC(=O)c1ccc[n+]([C@@H]2O[C@H](COP(=O)([O-])O)[C@@H](O)[C@H]2O)c1` [nicotinamide mononucleotide (NMN^+), nicotinamide mononucleotide]: in [1], the substrate activity entry was “not substrates” and the catalytic constant (kcat) is reported as < 10^−5 ^c s^−1.
With `O=C(O)c1cnccn1` [pyrazinoic acid], in data set [5], the inhibitory constant (Ki) is 6700 ± 1700 µM, the “fold higher Ki value compared to nicotinic acid” value turned out to be 56 fold and the inhibition pattern entry is “competitive inhibition patterns”.
Take `O=C(O)c1cccnc1` [nicotinic acid]: in [6], the inhibition entry was “no inhibition”. Besides, the “reverse reaction rate (upper estimate)” value in data set [7] is < 10^−5 s^−1. Besides, in data set [5], the affinity corresponds to a Ki of 120 ± 19 µM and the inhibition pattern result is recorded as “competitive inhibition patterns”.
Consider `Cl.N` [ammonium chloride], for which, in data set [8], the “concentration required for inhibition” value is reported as “greater than 10 mM” and the inhibition pattern entry was “non-competitive inhibition”. Also, in [8] (listed as ammonium ion), the inhibition pattern result is on record as “non-competitive inhibition patterns”.
As to `[Cl-].[Cl-].[Zn+2]` [ZnCl2], the “effect on activity of wild type Pnc1” value in data set [3] (2 mM) is “failed to increase activity”.
`C[n+]1cccc(C(N)=O)c1` [1-methylnicotinamide]: the “fold decreased kcat/Km compared to nicotinamide” value in [9] stood at 8400 fold. In data set [10], the substrate activity entry is “no activity”.
On to `CC(=O)c1cccnc1` [3-acetylpyridine], for which the inhibition constant Ki in data set [4] is 160 µM; in [11], 65 µM; in [12], 305 µM; in data set [5], 316 ± 101 µM. Further, the inhibition pattern result in data set [5] is recorded as “competitive inhibition”.

B1: Pnc1 (Saccharomyces cerevisiae S288C) (protein)
chain: MKTLIVVDMQNDFISPLGSLTVPKGEELINPISDLMQDADRDWHRIVVTRDWHPSRHISFAKNHKDKEPYSTYTYHSPRPGDDSTQEGILWPVHCVKNTWGSQLVDQIMDQVVTKHIKIVDKGFLTDREYYSAFHDIWNFHKTDMNKYLEKHHTDEVYIVGVALEYCVKATAISAAELGYKTTVLLDYTRPISDDPEVINKVKEELKAHNINVVDK
B1: the Michaelis-Menten constant (Km) is 25 ± 7 µM in data set [13], 157 ± 16 µM in data set [15], 9.6 ± 2.1 µM in [16] and 61 ± 6 µM in data set [17]. The catalytic constant (kcat) in data set [13] was found to be 0.0088 ± 0.0004 s⁻¹; in [15] it was 2.56 ± 0.1 s⁻¹; in data set [16], 0.69 ± 0.04 s⁻¹; in [17], 1.75 ± 0.05 s⁻¹; in data set [18], 0.69 ± 0.04 s⁻¹. In addition, the kcat/Km worked out at 350 ± 90 M⁻¹ s⁻¹ in data set [13]; 50 ± 17 M⁻¹ s⁻¹ in data set [14]; 16000 ± 1000 M⁻¹ s⁻¹ in [15]; 72000 ± 12000 M⁻¹ s⁻¹ in [16]; 29000 ± 2000 M⁻¹ s⁻¹ in data set [17]. Further, the “13C KIE” value is reported as ~ 1.25% in data set [19] (as percent) and 1.0125 ± 0.0004 in [19] (pH 7.5). Moreover, the “15N KIE” value in data set [20] (as percent) is reported as ~ 1.25%; in data set [20] (pH 7.5), 1.0122 ± 0.0002.

B2: H53A (protein, UniProt P53184 1-216, looked up, variant H53A)
Nicotinamidase: MKTLIVVDMQNDFISPLGSLTVPKGEELINPISDLMQDADRDWHRIVVTRDWAPSRHISFAKNHKDKEPYSTYTYHSPRPGDDSTQEGILWPVHCVKNTWGSQLVDQIMDQVVTKHIKIVDKGFLTDREYYSAFHDIWNFHKTDMNKYLEKHHTDEVYIVGVALEYCVKATAISAAELGYKTTVLLDYTRPISDDPEVINKVKEELKAHNINVVDK
Take B2: the kcat in data set [18] stood at 0.014 ± 0.002 s⁻¹.

B3: K122A (protein, UniProt P53184 1-216, looked up, variant K122A)
Nicotinamidase: MKTLIVVDMQNDFISPLGSLTVPKGEELINPISDLMQDADRDWHRIVVTRDWHPSRHISFAKNHKDKEPYSTYTYHSPRPGDDSTQEGILWPVHCVKNTWGSQLVDQIMDQVVTKHIKIVDAGFLTDREYYSAFHDIWNFHKTDMNKYLEKHHTDEVYIVGVALEYCVKATAISAAELGYKTTVLLDYTRPISDDPEVINKVKEELKAHNINVVDK
In the case of B3, in data set [18], the “fold lower kcat compared to Pnc1 WT” value is reported as 16 fold and the kcat was 0.044 ± 0.023 s⁻¹.

B4: H94A (protein, UniProt P53184 1-216, looked up, variant H94A)
Nicotinamidase: MKTLIVVDMQNDFISPLGSLTVPKGEELINPISDLMQDADRDWHRIVVTRDWHPSRHISFAKNHKDKEPYSTYTYHSPRPGDDSTQEGILWPVACVKNTWGSQLVDQIMDQVVTKHIKIVDKGFLTDREYYSAFHDIWNFHKTDMNKYLEKHHTDEVYIVGVALEYCVKATAISAAELGYKTTVLLDYTRPISDDPEVINKVKEELKAHNINVVDK
As to B4, in data set [18], the kcat was 0.020 ± 0.002 s⁻¹.

B5: D51N (protein, UniProt P53184 1-216, looked up, variant D51N)
Nicotinamidase: MKTLIVVDMQNDFISPLGSLTVPKGEELINPISDLMQDADRDWHRIVVTRNWHPSRHISFAKNHKDKEPYSTYTYHSPRPGDDSTQEGILWPVHCVKNTWGSQLVDQIMDQVVTKHIKIVDKGFLTDREYYSAFHDIWNFHKTDMNKYLEKHHTDEVYIVGVALEYCVKATAISAAELGYKTTVLLDYTRPISDDPEVINKVKEELKAHNINVVDK
As to B5, in [18], the “fold more active than the D51A mutant” value worked out at 3 fold. In addition, the kcat in [18] turned out to be 0.064 ± 0.012 s⁻¹. Also, the figures for the “13C KIE” value in [19] (as percent) and in data set [19] (pH 7.5) were ~ 0.5% and 1.0058 ± 0.0006, respectively. The “15N KIE” value is ~ 0.5% in data set [20] (as percent) and 1.0047 ± 0.0006 in data set [20] (pH 7.5).

B6: D8A (protein, UniProt P53184 1-216, looked up, variant D8A)
Nicotinamidase: MKTLIVVAMQNDFISPLGSLTVPKGEELINPISDLMQDADRDWHRIVVTRDWHPSRHISFAKNHKDKEPYSTYTYHSPRPGDDSTQEGILWPVHCVKNTWGSQLVDQIMDQVVTKHIKIVDKGFLTDREYYSAFHDIWNFHKTDMNKYLEKHHTDEVYIVGVALEYCVKATAISAAELGYKTTVLLDYTRPISDDPEVINKVKEELKAHNINVVDK
Regarding B6, in [18], the “fold lower kcat compared to Pnc1 WT” value was found to be 767 fold and the turnover number (kcat) came to 0.0009 ± 0.0001 s⁻¹.

B7: D51A (protein, UniProt P53184 1-216, looked up, variant D51A)
Nicotinamidase: MKTLIVVDMQNDFISPLGSLTVPKGEELINPISDLMQDADRDWHRIVVTRAWHPSRHISFAKNHKDKEPYSTYTYHSPRPGDDSTQEGILWPVHCVKNTWGSQLVDQIMDQVVTKHIKIVDKGFLTDREYYSAFHDIWNFHKTDMNKYLEKHHTDEVYIVGVALEYCVKATAISAAELGYKTTVLLDYTRPISDDPEVINKVKEELKAHNINVVDK
On to B7, for which the kcat in data set [18] is 0.020 ± 0.005 s⁻¹. For the same molecule, the “13C KIE” value in data set [19] (pH 7.5) is recorded as 1.0075 ± 0.0015. Besides, the “15N KIE” value in data set [20] (pH 7.5) is 1.0166 ± 0.0018.

B8: D8N (protein, UniProt P53184 1-216, looked up, variant D8N)
Nicotinamidase: MKTLIVVNMQNDFISPLGSLTVPKGEELINPISDLMQDADRDWHRIVVTRDWHPSRHISFAKNHKDKEPYSTYTYHSPRPGDDSTQEGILWPVHCVKNTWGSQLVDQIMDQVVTKHIKIVDKGFLTDREYYSAFHDIWNFHKTDMNKYLEKHHTDEVYIVGVALEYCVKATAISAAELGYKTTVLLDYTRPISDDPEVINKVKEELKAHNINVVDK
In the case of B8, in data set [18], the “fold lower kcat compared to Pnc1 WT” value is given as 1150 fold and the kcat stood at 0.0006 ± 0.0001 s⁻¹.

B9: D8E (protein, UniProt P53184 1-216, looked up, variant D8E)
Nicotinamidase: MKTLIVVEMQNDFISPLGSLTVPKGEELINPISDLMQDADRDWHRIVVTRDWHPSRHISFAKNHKDKEPYSTYTYHSPRPGDDSTQEGILWPVHCVKNTWGSQLVDQIMDQVVTKHIKIVDKGFLTDREYYSAFHDIWNFHKTDMNKYLEKHHTDEVYIVGVALEYCVKATAISAAELGYKTTVLLDYTRPISDDPEVINKVKEELKAHNINVVDK
As for B9, in [18], the “fold lower kcat compared to Pnc1 WT” value amounted to 100 fold and the turnover number (kcat) came to 0.0070 ± 0.0001 s⁻¹. For the same molecule, the “13C KIE” value in data set [19] (pH 7.5) was 1.0258 ± 0.0012. Also, in data set [20] (pH 7.5), the “15N KIE” value amounted to 1.0218 ± 0.0015.
